First the molecules themselves.
B1: Arginine-glutamic acid dipeptide repeats protein, residues 502 to 543; numbered along this chain, Q9P2R6 (parent)
chain: LKGYACRHCFTTTSKDWHHGGRENILLCTDCRIHFKKYGELP

± gives the uncertainty stated by the source.

Variants of B1 are the subject of the data set. The experiment in a line: abundance fitness (aPCA) (normalised: wild type 0, dead -1); higher = more abundant; growth selection in yeast, the domain comes from the species named. The conditions noted are these: Homo sapiens.
With S14A, the abundance fitness was -0.228 ± 0.036.
As to S14V, the abundance fitness was -0.476 ± 0.047.
On to H19P, for which the abundance fitness was -0.046 ± 0.043.
On to H19E, for which the abundance fitness was determined as 0.02 ± 0.04.
Y4F: the abundance fitness was -0.032 ± 0.087.
The figure for Y4R is -0.155 ± 0.036; for Y4P it is -0.257 ± 0.047.
As to Y4L, the abundance fitness is -0.109 ± 0.039.
As for G20V, the abundance fitness is -0.11 ± 0.035.
As to W17Q, the abundance fitness is -0.213 ± 0.053.
C31D: the abundance fitness was -0.527 ± 0.21.
Regarding L41W, the abundance fitness is -0.302 ± 0.038.
Consider F10P, for which the abundance fitness is -0.279 ± 0.071.
As for F10K, the abundance fitness came out at 0.017 ± 0.041.
For F10L, the abundance fitness was -0.068 ± 0.035.
Turning to R32N, the abundance fitness is -0.063 ± 0.071.
R32M: the abundance fitness was -0.017 ± 0.072.
On to K36R, for which the abundance fitness was -0.029 ± 0.034.
As to K36N, the abundance fitness turned out to be 0.248 ± 0.092.
Regarding P42L, the abundance fitness is -0.491 ± 0.085.
As to P42A, the abundance fitness is -0.367 ± 0.048.
Consider P42V, for which the abundance fitness is -0.456 ± 0.09.
Take K2S: the abundance fitness is -0.049 ± 0.048.
As for K2Q, the abundance fitness was -0.107 ± 0.041.
With I25T, the abundance fitness is -0.04 ± 0.083.
For I25A, the abundance fitness is -0.122 ± 0.035.
The figure for I25M is -0.15 ± 0.049.
Turning to I33T, the abundance fitness amounted to 0.042 ± 0.053.
Consider T13V, for which the abundance fitness is -0.125 ± 0.04.
As to T13R, the abundance fitness was determined as 0.012 ± 0.036.
For the variant T13M, the abundance fitness was -0.185 ± 0.058.
For G3W, the abundance fitness is -0.391 ± 0.051.
Then G3T, with -0.093 ± 0.045; and K15N, with -0.324 ± 0.073.
Consider T29W, for which the abundance fitness was -0.042 ± 0.043.
The figure for T29A is -0.067 ± 0.036; for T29H it is -0.474 ± 0.41.
As for T29L, the abundance fitness was -0.089 ± 0.039.
For the variant L27T, the abundance fitness is -0.294 ± 0.059.
For the variant D16E, the abundance fitness was -0.15 ± 0.041.
As to D16V, the abundance fitness was -0.412 ± 0.036.
Consider E40M, for which the abundance fitness is -0.176 ± 0.045.
Then H18K, with 0.055 ± 0.046; and H18P, with -0.333 ± 0.045.
In the case of T11Q, the abundance fitness was -0.278 ± 0.046.
Then L26V, with -0.18 ± 0.038.
As to L26R, the abundance fitness was -0.2 ± 0.038.
For K37Y, the abundance fitness is -0.159 ± 0.12.
Take K37G: the abundance fitness was -0.184 ± 0.039.
Regarding K37Q, the abundance fitness is -0.027 ± 0.046.
Regarding F35K, the abundance fitness is -0.091 ± 0.089.
As for C9P, the abundance fitness was -0.494 ± 0.051.
C9G: the abundance fitness is -0.455 ± 0.038.
Take C28W: the abundance fitness is -1 ± 0.12.
As to C28P, the abundance fitness was -0.853 ± 0.26.
As to C28E, the abundance fitness was -0.685 ± 0.058.
For C28S, the abundance fitness is -0.789 ± 0.058.
Consider R7P, for which the abundance fitness was -0.293 ± 0.043.
The figure for G21S is -0.056 ± 0.041; for G21M it is -0.291 ± 0.048.
For the variant G21K, the abundance fitness was -0.377 ± 0.058.
Regarding G21Y, the abundance fitness is -0.534 ± 0.26.
In the case of G21D, the abundance fitness is -0.236 ± 0.066.
In the case of Y38V, the abundance fitness turned out to be 0.022 ± 0.036.
Regarding Y38R, the abundance fitness was -0.084 ± 0.034.
On to Y38G, for which the abundance fitness is -0.185 ± 0.033.
Consider D30I, for which the abundance fitness is -0.404 ± 0.066.
Then N24M, with -0.107 ± 0.042; and H8T, with -0.428 ± 0.053; and H8S, with -0.136 ± 0.046.
Then H8M, with -0.347 ± 0.045.
Then H8Q, with -0.307 ± 0.046.
Turning to T12K, the abundance fitness is -0.135 ± 0.048.
With T12D, the abundance fitness was -0.141 ± 0.055.
T12E: the abundance fitness was -0.175 ± 0.051.
As for G39E, the abundance fitness is -0.078 ± 0.04.
With G39Q, the abundance fitness was -0.082 ± 0.046.
Then H34W, with -0.001 ± 0.037; and H34I, with -0.472 ± 0.16; and H34G, with -0.193 ± 0.033.
For the variant H34Q, the abundance fitness was -0.098 ± 0.043.
H34D: the abundance fitness was -0.32 ± 0.1.
For E23C, the abundance fitness was -0.159 ± 0.05.
Turning to E23V, the abundance fitness is -0.338 ± 0.046.
On to L1A, for which the abundance fitness was 0.158 ± 0.23.
Consider L1M, for which the abundance fitness came out at 0.076 ± 0.038.
Then R22G, with -0.048 ± 0.033; and R22I, with -0.157 ± 0.07; and R22S, with -0.055 ± 0.037.

(Values after the Human Domainome abundance scans (Beltran et al. 2025).)
